Data: US20250019450A1 (DIAGONAL THERAPEUTICS, published 2025)
Positions count from the first letter of the chain named. Blank lines part the entries; values can stand above or below the binder they belong to.

Target: human IL-12 receptor (IL-12Rβ1 and IL-12Rβ2) on HEK-Blue IL-12 cells (human, UniProt P42701 24-662; Q99665 24-862)
Test: cell-based or functional assay

Sequence of human IL-12 receptor (IL-12Rβ1 and IL-12Rβ2) on HEK-Blue IL-12 cells (Q99665 24-862, chain 2 of 2, other chains not shown): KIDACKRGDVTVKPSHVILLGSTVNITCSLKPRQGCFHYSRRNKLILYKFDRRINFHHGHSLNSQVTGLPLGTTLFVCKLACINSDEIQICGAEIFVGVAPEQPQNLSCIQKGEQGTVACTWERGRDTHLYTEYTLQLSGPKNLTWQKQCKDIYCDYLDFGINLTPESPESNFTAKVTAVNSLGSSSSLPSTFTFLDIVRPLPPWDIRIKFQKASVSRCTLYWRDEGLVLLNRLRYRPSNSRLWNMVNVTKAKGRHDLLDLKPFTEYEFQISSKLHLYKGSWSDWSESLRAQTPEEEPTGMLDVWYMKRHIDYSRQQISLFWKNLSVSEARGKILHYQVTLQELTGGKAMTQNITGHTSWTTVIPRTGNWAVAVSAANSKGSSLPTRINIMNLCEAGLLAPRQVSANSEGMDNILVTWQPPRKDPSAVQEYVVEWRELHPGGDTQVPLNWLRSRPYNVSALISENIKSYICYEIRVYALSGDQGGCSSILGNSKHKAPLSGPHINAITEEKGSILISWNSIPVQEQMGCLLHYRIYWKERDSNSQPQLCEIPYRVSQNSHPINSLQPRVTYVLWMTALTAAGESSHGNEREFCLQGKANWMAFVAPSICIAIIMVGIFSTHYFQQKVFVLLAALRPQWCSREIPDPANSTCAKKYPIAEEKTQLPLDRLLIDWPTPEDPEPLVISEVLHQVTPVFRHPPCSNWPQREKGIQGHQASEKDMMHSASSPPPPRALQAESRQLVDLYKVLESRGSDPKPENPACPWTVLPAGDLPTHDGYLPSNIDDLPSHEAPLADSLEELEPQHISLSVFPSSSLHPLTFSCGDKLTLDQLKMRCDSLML

B5: DGL413 (bispecific antibody, human IgG1, kappa)
heavy 1: not shown
heavy 2: QVQLVESGGGLVQAGGSLRLSCAASGRTFSRYRMGWFRQAPGKEREFVAAITKSGATTYDADSVKGRFTISRDNAKNTLYLQMNSLKPEDTAVYYCAASYHSNWWPKNADEYAYWGQGTQVTVEPKSSDKTHTCPPCPAPEAAGAPSVFLFPPKPKDTLMISRTPEVTCVVVDVSHEDPEVKFNWYVDGVEVHNAKTKPREEQYNSTYRVVSVLTVLHQDWLNGKEYKCKVSNKALPAPIEKTISKAKGQPREPQVCTLPPSRDELTKNQVSLSCAVKGFYPSDIAVEWESNGQPENNYKTTPPVLDSDGSFFLVSKLTVDKSRWQQGNVFSCSVMHEALHNRFTQKSLSLSPG
light: DIQMTQSPSSLSASVGDRVTITCRASQGIGNYLAWFQQRPGKAPKSLIYAASSLQSGVPSKFSGSGSGTDFTLTISSLQPADFAIYYCQQYNIYPYTFGPGTRLEIKRTVAAPSVFIFPPSDEQLKSGTASVVCLLNNFYPREAKVQWKVDNALQSGNSQESVTEQDSKDSTYSLSSTLTLSKADYEKHKVYACEVTHQGLSSPVTKSFNRGEC
- Max Absorbance: 0.29

B6: DGL479 (bispecific antibody, V domains shown)
V domain 1: QVQLVESGGGLVQAGGSLRLSCAAPGRYAVGWFRQAPGKEYEFVAAITVSGGSKYYEDSVKGRFAISRDNAKNTVYLQMNSLKAEDTAVYYCAARTPKFGSGWYNRRGEYDYWGQGTQVTVEP
V domain 2: QVQLVESGGGLVQAGGSLRLSCAASGRTFSSYAMGWFRQAPGKEREFVSAISWSGLSTYYVESVQGRFTISRDNAKNTVYLQMNSLKPEDTAVYYCAASRIYTNYVARSYEYDDWGQGTQVTVEP
- Max Absorbance: 0.29

B7: DGL490 (bispecific antibody, V domains shown)
V domain 1: QVQLVESGGGLVQAGGSLRLSCAASARIFNSYAVAWFRQTPGKEREFVASISWSGGSTNYADSVKGRFTISRDNAKNTVFLQMNSLKPADTAVYYCAADRNYYPSVLGKYTYWGQGTQVTVEP
V domain 2: B6 V domain 2
- Max Absorbance: 0.25

B8: DGL397 (bispecific antibody, human IgG1, kappa)
heavy 1: not shown
heavy 2: QVQLVESGGGLVQAGGSLRLSCAASGRIFSAYRMGWFRQAPGKEREFVAGITWRGQTTYYAASVKGRFTISKDNAKKTVYLQMNSLKPEETAVYYCAVETNGLGRWDRPSEYDYWGQGTQVTVEPKSSDKTHTCPPCPAPEAAGAPSVFLFPPKPKDTLMISRTPEVTCVVVDVSHEDPEVKFNWYVDGVEVHNAKTKPREEQYNSTYRVVSVLTVLHQDWLNGKEYKCKVSNKALPAPIEKTISKAKGQPREPQVCTLPPSRDELTKNQVSLSCAVKGFYPSDIAVEWESNGQPENNYKTTPPVLDSDGSFFLVSKLTVDKSRWQQGNVFSCSVMHEALHNRFTQKSLSLSPG
light: DIQLTQSPSFLSASVGDRVTITCRASQGISSYLAWYQQQPGKPPKLLIYAASTLHSGVPSRFSGSGSGTEFTLTISSLQPEDFATYYCQQLNRYPYTCGQGTKLEIKRTVAAPSVFIFPPSDEQLKSGTASVVCLLNNFYPREAKVQWKVDNALQSGNSQESVTEQDSKDSTYSLSSTLTLSKADYEKHKVYACEVTHQGLSSPVTKSFNRGEC
- EC50: 1.6e-11 M (implied)
- Max Absorbance: 0.28

B9: DGL395 (bispecific antibody, human IgG1, kappa)
heavy 1: not shown
heavy 2: QVQLVESGGGLVQAGGSLRLSCAASGRTFSSYAMGWFRQAPGKEREFVSAISWSGLSTYYVESVQGRFTISRDNAKNTVYLQMNSLKPEDTAVYYCAASRIYTNYVARSYEYDDWGQGTQVTVEPKSSDKTHTCPPCPAPEAAGAPSVFLFPPKPKDTLMISRTPEVTCVVVDVSHEDPEVKFNWYVDGVEVHNAKTKPREEQYNSTYRVVSVLTVLHQDWLNGKEYKCKVSNKALPAPIEKTISKAKGQPREPQVCTLPPSRDELTKNQVSLSCAVKGFYPSDIAVEWESNGQPENNYKTTPPVLDSDGSFFLVSKLTVDKSRWQQGNVFSCSVMHEALHNRFTQKSLSLSPG
light: B8 light with Y32F, Q39K, P43A, H55Q, R93G, Y96F, C98F, Q100P, L104V, E105D
- EC50: 2.3e-10 M (implied)
- Max Absorbance: 0.26

B10: DGL405 (bispecific antibody, human IgG1, kappa)
heavy 1: not shown
heavy 2: B8 heavy 2
light: DIQLTQSPSFLSASVGYRVTITCRASQGISSYLAWYQQKPGKAPQLLIYAASTLQSGVPSRFSGRGSGTEFTLTISSLQPEDFATYYCQQLNGYPFTFGPGTKVNIKRTVAAPSVFIFPPSDEQLKSGTASVVCLLNNFYPREAKVQWKVDNALQSGNSQESVTEQDSKDSTYSLSSTLTLSKADYEKHKVYACEVTHQGLSSPVTKSFNRGEC
- Max Absorbance: 0.26

B13: DGL506 (bispecific antibody, V domains shown)
V domain 1: EVQLVESGGGLVQAGGSLRLSCAASGLTFRNYAMAWFRQAPGKEREFVAGITWGGGLTHYVDSVKGRFTISRDNGKNTVYLQMNSLKSEDTAVYYCAGKTQGSTWYHLTPDGYDYWGQGTQVTVEP
V domain 2: QVQLVESGGGLVQAGGSLKLSCAASGGTFSSYAMGWFRQAPGKEREFVAAIMRSGGTTVYVNSVKGRFTVSRDNAKNTVYLQMNSLKPEDAAVYYCAAGRPVSRTSYYTYTYPHDYDYWGQGTQVSVEP
- Max Absorbance: 0.31

B14: DGL453 (bispecific antibody, V domains shown)
V domain 1: QVQLQESGGALVQPGGSLRLSCVVSGFTSDYFAIGWFRQAPGKEREGVSCIGSSDGSTIYSDSVKGRFTISRDNAKNTVYLQMNSLKPEDTGVYYCALDRGRRTIIGYACYATMKYWGKGTPVTVEP
V domain 2: QVQLVESGGGLVQPGGSLRLSCAASGFTFSNYAMSWIRQGPERGFEWVSRINSGGGTTSYADSVKGRFTISRDNAKNTLYLQMNSLKPEDTAVYYCAKHSHPDYSSNYYRPGQGTQVTVEP
- Max Absorbance: 0.25

B16: DGL603 (bispecific antibody, V domains shown)
V domain 1: EVQLVESGGGLVQPGGSLRLSCAASGFTFQNYAMSWLRKAPGEGLEWVSVINSGGGSTLYADSVKGRFTISRDNAKNTLYLQMHSLKSEDTAVYFCAKRRDDSTFGSLLYTHRGQGTQVTVEP
V domain 2: QVQLVESGGGLVQPGGSLRLSCAASGFTFSNYAMSWVRQAPGKGLEWVSAINSDGTSTSYADSVKGQFTISRDNAKNTLYLQMNSLKPEDTAVYYCTKWEGDTDSDYKFKDYWGQGTQVTVEP
- Max Absorbance: 0.31

The next lines start with the values.

- Max Absorbance: 0.27
B1: DGL518 (bispecific antibody, V domains shown)
V domain 1: EVQLVESGGGLVQPGGSLRLFCAASRSIFNINIMGWYRQAPGKQREWLASITSGGSTFYADSVKDRFTISRDSVKNTVYLQMNSLKPEDTAAYYCNRYRSVPLNTVYPWGQGTLVTVEP
V domain 2: QVQLVESGGGLVRPGGSLRLSCAASGFTFSSNGMHWFRQAPGKGLEWVSSIGSGGTSIYYADSVKGRFTISRDNAKNTLYLQMNSLKSDDTAVYYCSKEVTGATRGQGTQVTVEP

- Max Absorbance: 0.33
B2: DGL594 (bispecific antibody, V domains shown)
V domain 1: EVQLVESGGGLVQAGGSLRLSCAASGSKFSFNAMGWYRQTPGKQRELVAIIINGDMINYADSVKGRFTISRDNAKNTMYLQMNSLKPEDTAVYYCKMTRYVYDYWGQGTQVTVEP
V domain 2: QVQLVESGGGLVQPGGSLRLSCAASGFTFSSKAMHWFRQAPGKGLEWVSSINSGGAITYYKDSVKGRFTVSRDNAKNILYLEMNSLKPEDTALYYCATDTDGRTRGQGTQVTVEP

- Max Absorbance: 0.32
B3: DGL587 (bispecific antibody, V domains shown)
V domain 1: QVQLVESGGGLVQAGGSLRLSCAASGRTFSSYVMGWFRQAPGQEREFVAAIMRNGIMTYYADSVKGRFTISRDNAKNTVYLQMNTLKPDDTAVYYCAAASRVGVSISQSSSYTSWGQGTQVTVEP
V domain 2: B2 V domain 2

- Max Absorbance: 0.27
B4: DGL496 (bispecific antibody, V domains shown)
V domain 1: B13 V domain 1
V domain 2: B2 V domain 2

- Max Absorbance: 0.32
B11: DGL497 (bispecific antibody, V domains shown)
V domain 1: B13 V domain 1
V domain 2: B14 V domain 2

- Max Absorbance: 0.26
B12: DGL505 (bispecific antibody, V domains shown)
V domain 1: B13 V domain 1
V domain 2: QVQLVESGGGLVQLGDSLRLSCAASGRGFSSWTMAWFRQALGKRREFVAAITATGARTSSAESEGRFTISRDNAKNMVFLQMNSLKAEDTAVYYCAATGIASWDPGMADKYTYWGQGTQVTVEP

- Max Absorbance: 0.28
B15: DGL508 (bispecific antibody, V domains shown)
V domain 1: B13 V domain 1
V domain 2: QVQLVESGGGLVQAGGSLRLSCAASGRTFSRYIMGWFRQATGKEREFVAAISWSGLSTHYADSVQGRFTISRDNAENTVYLQMNSLKPEDTAVYYCAADRHWETRLLPREYDYWGQGTQVTVEP

- Max Absorbance: 0.31
B17: DGL461 (bispecific antibody, V domains shown)
V domain 1: B16 V domain 1
V domain 2: QVQLVESGGGLVQPGGSLRLSCAASGFTFEPYDMSWFRQAPGKGPEWVSAIDKGGGAGATYYADSVKGRFTISRDNAKKTLYLQMKSLKPEDTAVYYCAITAGPYSDSTPRVAYRGEGTQVTVEP
